In paper PMC10850505, “Molecular mechanism of specific HLA-A mRNA recognition by the RNA-binding-protein hMEX3B to promote tumor immune escape”:
Positions count from the first letter of the chain named. In names and notes the source's numbering stands.

Key:
hMEX3B KH1/2 WT [1] = molecular target: T1, hMEX3B KH1/2 WT (Homo sapiens, UniProt Q6ZN04 56-230); assay: ITC; N 0.84; text says larger than 1.11 uM; ITC at 298 K, protein injected into RNA, both dialyzed in the same buffer (composition not in the material; purification SEC buffer 2 M NaCl, 20 mM Tris pH 7.5); NMR at 298 K, 0.1 mM protein; details: protein: recombinant; tags: 6xHis-SUMO cleaved (ULP1)
T1 sequence: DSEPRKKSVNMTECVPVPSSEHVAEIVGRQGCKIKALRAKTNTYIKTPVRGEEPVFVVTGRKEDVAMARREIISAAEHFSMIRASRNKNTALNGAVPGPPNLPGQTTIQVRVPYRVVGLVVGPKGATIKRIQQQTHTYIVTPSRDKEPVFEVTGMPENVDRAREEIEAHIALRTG

hMEX3B KH2 WT [2] = molecular target: T2, hMEX3B KH2 WT (Homo sapiens, UniProt Q6ZN04 156-230); assay: ITC; N 1.79; ITC at 298 K, protein injected into RNA, both dialyzed in the same buffer (composition not in the material; purification SEC buffer 2 M NaCl, 20 mM Tris pH 7.5); NMR at 298 K, 0.1 mM protein; details: protein: recombinant; tags: modified pET28a without thrombin site (His tag likely retained)
T2 sequence: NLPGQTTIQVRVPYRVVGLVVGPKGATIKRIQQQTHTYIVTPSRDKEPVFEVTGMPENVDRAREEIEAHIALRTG

hMEX3B KH1/2 WT [3] = molecular target: T1, hMEX3B KH1/2 WT; assay: ITC; N 0.91; ITC at 298 K, protein injected into RNA, both dialyzed in the same buffer (composition not in the material; purification SEC buffer 2 M NaCl, 20 mM Tris pH 7.5); NMR at 298 K, 0.1 mM protein; details: protein: recombinant; tags: 6xHis-SUMO cleaved (ULP1)
[4] = molecular target: T3, hMEX3B KH1/2 (T196A/R199A) (Homo sapiens, UniProt Q6ZN04 56-230, T196A;R199A); assay: ITC; N 0.68; ITC at 298 K, protein injected into RNA, both dialyzed in the same buffer (composition not in the material; purification SEC buffer 2 M NaCl, 20 mM Tris pH 7.5); NMR at 298 K, 0.1 mM protein; details: protein: recombinant; tags: 6xHis-SUMO cleaved (ULP1)
T3 sequence: T1 sequence with T141A, R144A

[5] = molecular target: T4, hMEX3B KH1/2 (T102A/R105A) (Homo sapiens, UniProt Q6ZN04 56-230, T102A;R105A); assay: ITC; N 0.79; ITC at 298 K, protein injected into RNA, both dialyzed in the same buffer (composition not in the material; purification SEC buffer 2 M NaCl, 20 mM Tris pH 7.5); NMR at 298 K, 0.1 mM protein; details: protein: recombinant; tags: 6xHis-SUMO cleaved (ULP1)
T4 sequence: T1 sequence with T47A, R50A

hMEX3B KH1/2 (G4D) = molecular target: T5, hMEX3B KH1/2 (G4D) (Homo sapiens, UniProt Q6ZN04 56-230, G83D;G86D;G177D;G180D); assay: ITC; ITC at 298 K, protein injected into RNA, both dialyzed in the same buffer (composition not in the material; purification SEC buffer 2 M NaCl, 20 mM Tris pH 7.5); NMR at 298 K, 0.1 mM protein; details: protein: recombinant; tags: 6xHis-SUMO cleaved (ULP1)
T5 sequence: T1 sequence with G28D, G31D, G122D, G125D

hMEX3B KH1/2 (TR4A) = molecular target: T6, hMEX3B KH1/2 (TR4A) (Homo sapiens, UniProt Q6ZN04 56-230, T102A;R105A;T196A;R199A); assay: as above; details: protein: recombinant; tags: 6xHis-SUMO cleaved (ULP1)
T6 sequence: T1 sequence with T47A, R50A, T141A, R144A

hMEX3B KH1 WT [6] = molecular target: T7, hMEX3B KH1 WT (Homo sapiens, UniProt Q6ZN04 56-144); assay: ITC; N 1.91; ITC at 298 K, protein injected into RNA, both dialyzed in the same buffer (composition not in the material; purification SEC buffer 2 M NaCl, 20 mM Tris pH 7.5); NMR at 298 K, 0.1 mM protein; details: protein: recombinant; tags: modified pET28a without thrombin site (His tag likely retained)
T7 sequence: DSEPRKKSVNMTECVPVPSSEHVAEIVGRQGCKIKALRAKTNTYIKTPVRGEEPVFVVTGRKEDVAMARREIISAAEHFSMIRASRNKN

hMEX3B KH1/2 (G83D/G86D) = molecular target: T8, hMEX3B KH1/2 (G83D/G86D) (Homo sapiens, UniProt Q6ZN04 56-230, G83D;G86D); assay: ITC; N 0.67; ITC at 298 K, protein injected into RNA, both dialyzed in the same buffer (composition not in the material; purification SEC buffer 2 M NaCl, 20 mM Tris pH 7.5); NMR at 298 K, 0.1 mM protein; details: protein: recombinant; tags: 6xHis-SUMO cleaved (ULP1)
T8 sequence: T1 sequence with G28D, G31D

[7] = molecular target: T9, hMEX3B KH1/2 (G177D/G180D) (Homo sapiens, UniProt Q6ZN04 56-230, G177D;G180D); assay: ITC; N 0.89; ITC at 298 K, protein injected into RNA, both dialyzed in the same buffer (composition not in the material; purification SEC buffer 2 M NaCl, 20 mM Tris pH 7.5); NMR at 298 K, 0.1 mM protein; details: protein: recombinant; tags: 6xHis-SUMO cleaved (ULP1)
T9 sequence: T1 sequence with G122D, G125D

hMEX3B KH1/2 WT [8] = molecular target: T1, hMEX3B KH1/2 WT; assay: ITC; N 0.96; ITC at 298 K, protein injected into RNA, both dialyzed in the same buffer (composition not in the material; purification SEC buffer 2 M NaCl, 20 mM Tris pH 7.5); NMR at 298 K, 0.1 mM protein; details: protein: recombinant; tags: 6xHis-SUMO cleaved (ULP1)
hMEX3B KH1 WT [9] = molecular target: T7, hMEX3B KH1 WT; assay: ITC; ITC at 298 K, protein injected into RNA, both dialyzed in the same buffer (composition not in the material; purification SEC buffer 2 M NaCl, 20 mM Tris pH 7.5); NMR at 298 K, 0.1 mM protein; details: protein: recombinant; tags: modified pET28a without thrombin site (His tag likely retained)
hMEX3B KH2 WT [10] = molecular target: T2, hMEX3B KH2 WT; assay: as above; details: protein: recombinant; tags: modified pET28a without thrombin site (His tag likely retained)
hMEX3B KH1/2 WT [11] = molecular target: T1, hMEX3B KH1/2 WT; assay: as above; details: protein: recombinant; tags: 6xHis-SUMO cleaved (ULP1)
hMEX3B KH1/2 WT [12] = molecular target: T1, hMEX3B KH1/2 WT; assay: ITC; N 0.94; ITC at 298 K, protein injected into RNA, both dialyzed in the same buffer (composition not in the material; purification SEC buffer 2 M NaCl, 20 mM Tris pH 7.5); NMR at 298 K, 0.1 mM protein; details: protein: recombinant; tags: 6xHis-SUMO cleaved (ULP1)
hMEX3B KH1/2 WT [13] = molecular target: T1, hMEX3B KH1/2 WT; assay: ITC; N 0.89; ITC at 298 K, protein injected into RNA, both dialyzed in the same buffer (composition not in the material; purification SEC buffer 2 M NaCl, 20 mM Tris pH 7.5); NMR at 298 K, 0.1 mM protein; details: protein: recombinant; tags: 6xHis-SUMO cleaved (ULP1)
hMEX3B KH1 WT [14] = molecular target: T7, hMEX3B KH1 WT; assay: as above; details: protein: recombinant; tags: modified pET28a without thrombin site (His tag likely retained)
hMEX3B KH2 WT [15] = molecular target: T2, hMEX3B KH2 WT; assay: ITC; N 1.02; ITC at 298 K, protein injected into RNA, both dialyzed in the same buffer (composition not in the material; purification SEC buffer 2 M NaCl, 20 mM Tris pH 7.5); NMR at 298 K, 0.1 mM protein; details: protein: recombinant; tags: modified pET28a without thrombin site (His tag likely retained)

B1: switched 12-nt RNA (ssRNA)
RNA: UGUAACCUGAGC
hMEX3B KH1/2 WT [1]
  Kd: > 1.11 µM

B2: 12-nt RNA (ssRNA)
RNA: CUGAGCUGUAAC
hMEX3B KH2 WT [2]
  Kd: 21.7 ± 6.87 µM
hMEX3B KH1/2 WT [3]
  Kd: 0.0436 ± 0.00763 µM
[4]
  Kd: 5.98 ± 0.59 µM
[5]
  Kd: 2.08 ± 0.29 µM
hMEX3B KH1/2 (G4D)
  binding result: no binding
hMEX3B KH1/2 (TR4A)
  binding result: no binding
hMEX3B KH1 WT [6]
  Kd: 26.2 ± 7.4 µM
hMEX3B KH1/2 (G83D/G86D)
  Kd: 10.4 ± 1.29 µM
[7]
  Kd: 7.42 ± 1.32 µM

B3: 12-nt RNA U2C (ssRNA)
RNA: CCGAGCUGUAAC
hMEX3B KH1/2 WT [8]
  Kd: 0.72 ± 0.09 µM

B4: C6 RNA (ssRNA)
RNA: CCCCCC
hMEX3B KH1 WT [9]
  binding result: no binding
hMEX3B KH2 WT [10]
  binding result: no binding

B5: C12 RNA (ssRNA)
RNA: CCCCCCCCCCCC
hMEX3B KH1/2 WT [11]
  binding result: no binding

B6: 12-nt RNA A11C (ssRNA)
RNA: CUGAGCUGUACC
hMEX3B KH1/2 WT [12]
  Kd: 0.89 ± 0.09 µM

B7: 12-nt RNA A10C (ssRNA)
RNA: CUGAGCUGUCAC
hMEX3B KH1/2 WT [13]
  Kd: 1.58 ± 0.24 µM

B8: 6-nt RNA UGUAAC (ssRNA)
RNA: UGUAAC
hMEX3B KH1 WT [14]
  Kd: 10.3 ± 0.61 µM

B9: 12-nt RNA A4C (ssRNA)
RNA: CUGCGCUGUAAC
hMEX3B KH1/2 WT [3]
  Kd: 2.1 ± 0.31 µM

B10: 6-nt RNA CUGAGC (ssRNA)
RNA: CUGAGC
hMEX3B KH2 WT [15]
  Kd: 9.57 ± 0.99 µM
